Source: article PMC12285911 (Nature Structural & Molecular Biology, 2025)

T1: ^FAMFAT10 (GG–FAT10 N-terminally labeled with fluorescein amidite by sortase) (human, 5-FAM on the N terminus (5-FAM conjugated to the N terminus of the peptide …, attached by sortase))
T1 construct: GG added to the N terminus of FAT10 for sortase labeling (scar left after Smt3 cleavage); also called GG–FAT10 (labeled); source: E. coli BL21*, purified; sortase-labeled, enriched on Ni-NTA, gel filtration; not shown: His, N-terminal, cleaved; Smt3, N-terminal, cleaved
T1 chain: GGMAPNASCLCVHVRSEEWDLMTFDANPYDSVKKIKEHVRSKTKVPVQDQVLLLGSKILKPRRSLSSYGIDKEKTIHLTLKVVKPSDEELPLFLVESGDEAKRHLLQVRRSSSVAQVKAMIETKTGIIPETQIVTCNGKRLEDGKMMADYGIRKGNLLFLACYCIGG

T2: FAT10 (human leukocyte antigen-F-adjacent transcript 10), wild type, full length, unlabeled (human)
T2 construct: also called wild-type FAT10; source: E. coli BL21*, purified (Ni-NTA, His–ULP1 cleavage, HiTrap SP, gel filtration); not shown: His, N-terminal, cleaved; Smt3, N-terminal, cleaved
T2 chain: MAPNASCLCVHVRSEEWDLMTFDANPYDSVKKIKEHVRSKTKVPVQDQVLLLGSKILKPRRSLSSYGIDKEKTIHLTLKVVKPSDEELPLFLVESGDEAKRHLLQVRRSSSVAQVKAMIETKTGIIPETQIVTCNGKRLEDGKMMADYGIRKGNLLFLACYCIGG

B1: NUB1^Δ1–175 (domain or fragment)
chain: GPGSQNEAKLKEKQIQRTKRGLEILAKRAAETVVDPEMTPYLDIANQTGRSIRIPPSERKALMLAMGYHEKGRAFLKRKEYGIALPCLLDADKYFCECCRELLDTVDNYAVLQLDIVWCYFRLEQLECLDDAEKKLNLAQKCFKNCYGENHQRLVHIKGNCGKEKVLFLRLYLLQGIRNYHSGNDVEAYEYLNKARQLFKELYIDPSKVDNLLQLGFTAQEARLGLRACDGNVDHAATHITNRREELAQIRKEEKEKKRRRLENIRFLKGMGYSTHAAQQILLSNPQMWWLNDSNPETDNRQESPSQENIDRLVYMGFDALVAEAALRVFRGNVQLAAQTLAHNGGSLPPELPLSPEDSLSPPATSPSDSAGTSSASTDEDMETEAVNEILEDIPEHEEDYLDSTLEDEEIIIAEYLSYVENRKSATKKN
notes: overhang left at the N terminus after removal of GST by precision (3C) protease; also called linker-trap domain; source: E. coli BL21*, purified (GSH resin, GST–3C protease cleavage, gel filtration); not shown: GST, N-terminal, cleaved
B2: NUB1 (NEDD8 ultimate buster 1), wild type, full length (natural protein)
chain: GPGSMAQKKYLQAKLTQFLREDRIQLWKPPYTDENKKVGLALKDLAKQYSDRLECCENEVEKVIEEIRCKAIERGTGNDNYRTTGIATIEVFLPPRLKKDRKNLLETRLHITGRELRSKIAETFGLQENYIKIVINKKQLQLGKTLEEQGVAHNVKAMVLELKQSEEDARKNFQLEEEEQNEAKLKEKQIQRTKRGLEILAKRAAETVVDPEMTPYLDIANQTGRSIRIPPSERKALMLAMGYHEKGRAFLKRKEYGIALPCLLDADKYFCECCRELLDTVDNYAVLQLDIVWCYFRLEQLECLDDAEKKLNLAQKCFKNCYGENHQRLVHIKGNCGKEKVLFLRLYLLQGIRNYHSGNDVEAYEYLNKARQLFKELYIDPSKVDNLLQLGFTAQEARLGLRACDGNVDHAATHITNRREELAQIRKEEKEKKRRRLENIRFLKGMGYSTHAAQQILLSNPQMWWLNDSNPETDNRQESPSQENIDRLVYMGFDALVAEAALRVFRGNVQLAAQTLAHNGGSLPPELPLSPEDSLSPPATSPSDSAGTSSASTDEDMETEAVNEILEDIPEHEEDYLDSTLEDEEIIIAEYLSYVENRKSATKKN
notes: overhang left at the N terminus after removal of GST by precision (3C) protease; the shorter isoform, not NUB1L; codon-optimised synthetic gene in pGEX-6P-1; also called wild-type NUB1; source: E. coli BL21*, purified (GSH resin, GST–3C protease cleavage, gel filtration); not shown: GST, N-terminal, cleaved

Assays:
Conditions in all cases: both partners purified
[1] = biological target: T1, ^FAMFAT10 (GG–FAT10 N-terminally …); assay: fluorescence polarisation; titration: ^FAMFAT10 (100 nM) incubated with varying NUB1 concentrations on ice (45 min by the legends, 30 min by the methods), polarisation read in a 384-well plate preheated to 30 °C; the Kd is called approximate (some aggregation at higher NUB1 concentrations)
[2] = biological target: T1, ^FAMFAT10 (GG–FAT10 N-terminally …); assay: fluorescence polarisation; kinetics: ^FAMFAT10 (20 nM) mixed with NUB1 (250–4,000 nM), polarisation over time, single exponentials, kobs against NUB1 concentration, kon by linear regression; 30 °C
[3] = biological target: T3, Rpn1 (proteasomal receptor subunit of the 19S regulatory particle) (human (endogenous in HEK293), UniProt Q13200 1-908); assay: cryo-EM structure; hs26S proteasome mixed with preincubated (20 min) FAT10–Eos + NUB1 complex in 20 mM HEPES pH 7.4, 25 mM NaCl, 25 mM KCl, 5 mM MgCl2, 2 mM ATP, for 30 s or 60 s before plunge-freezing; nonprocessing and processing states
T3 construct: Rpn1, subunit of the human 26S proteasome; stood in the experiment as a subunit of the whole hs26S proteasome; also called proteasomal Rpn1 subunit; source: endogenous, within the hs26S proteasome purified from HEK293 cells

[4] = biological target: T2, FAT10 (human leukocyte …); assay: SEC; NUB1 (50 µM) incubated with FAT10 (75 µM) for 30 min on ice, Superdex 200 Increase 10/300; the single complex peak was pooled and run on SEC–MALS (60 mM HEPES pH 7.4, 50 mM NaCl, 50 mM KCl, 5% glycerol, 10 mM MgCl2, 0.5 mM TCEP)

T3 sequence (Q13200 whole entry): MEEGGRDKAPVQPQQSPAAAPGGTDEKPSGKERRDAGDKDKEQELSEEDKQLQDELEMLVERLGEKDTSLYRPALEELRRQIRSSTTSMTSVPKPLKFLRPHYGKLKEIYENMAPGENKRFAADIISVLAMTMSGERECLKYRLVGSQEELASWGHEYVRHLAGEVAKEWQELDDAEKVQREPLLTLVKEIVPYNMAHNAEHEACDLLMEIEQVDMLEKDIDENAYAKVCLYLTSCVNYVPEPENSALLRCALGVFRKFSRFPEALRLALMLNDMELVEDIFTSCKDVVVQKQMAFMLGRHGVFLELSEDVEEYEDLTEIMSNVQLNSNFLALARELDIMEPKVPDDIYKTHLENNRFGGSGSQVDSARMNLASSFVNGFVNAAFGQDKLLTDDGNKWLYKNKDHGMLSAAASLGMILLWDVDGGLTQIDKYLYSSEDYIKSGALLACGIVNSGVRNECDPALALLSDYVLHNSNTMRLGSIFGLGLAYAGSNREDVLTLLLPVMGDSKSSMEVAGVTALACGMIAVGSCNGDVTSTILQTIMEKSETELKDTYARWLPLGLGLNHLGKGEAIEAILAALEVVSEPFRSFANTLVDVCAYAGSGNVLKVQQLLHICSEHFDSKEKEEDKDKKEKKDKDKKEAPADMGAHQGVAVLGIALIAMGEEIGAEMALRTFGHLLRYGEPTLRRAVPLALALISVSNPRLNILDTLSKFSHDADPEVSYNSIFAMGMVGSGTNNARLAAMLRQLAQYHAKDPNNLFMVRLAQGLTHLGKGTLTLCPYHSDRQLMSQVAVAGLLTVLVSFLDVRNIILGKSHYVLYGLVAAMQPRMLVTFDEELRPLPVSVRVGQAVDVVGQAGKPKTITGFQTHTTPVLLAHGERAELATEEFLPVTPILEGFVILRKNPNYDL

Row | Binder | binding result [1] | Kd [1] | kon [2] | binding result [3] | stoichiometry N [4]
1 | B1 | binds | – | – | – | –
2 | B2 | – | 176 ± 6.8 nM | 1600 ± 3000 M⁻¹ s⁻¹ | binds | 1
